± gives the uncertainty stated by the source.
Experiment: protein stability index of a GFP-peptide fusion (yeast GPS) (PSI 1-4); higher = more stable; sorted into four equal gates, so the index is relative within each strain
How it was run: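 The protein stability index combines read frequencies across sorting gates, each weighted by its gate number and then summed. To obtain those frequencies, a pooled yeast library of GFP fusions to tiled 17-residue yeast protein peptides, on a plasmid also expressing Cherry, was grown to mid-log phase in leucine-free medium. The cells were sorted into four equal gates by GFP/Cherry ratio before plasmid amplification by PCR and Illumina sequencing.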

Sequence	protein stability index (doa10∆)	protein stability index (pdr5∆)	protein stability index (san1∆)	protein stability index (ubr1∆)
GNGEGLGGDSDEANIEI [BRN1]	3.11 ± 0.17	3.48 ± 0.27	2.95 ± 0.17	
DDTAANNGDKDHLKLVS [YIL149C/MLP2]	3.25 ± 0.12	3.35 ± 0.11	2.81 ± 0.12	3.2 ± 0.087
TNHVLEVFSVLGIEAAR [RPO31]	2.21 ± 0.19	2.4 ± 0.11	2.77 ± 0.076	3.02 ± 0.24
LNVVMKNLERLRGEYND [SMC4]	3.26 ± 0.092	3.49 ± 0.11	3.37 ± 0.068	3.66 ± 0.13
TGWISKCTAEGIKVSLL [RPC25]	2.9 ± 0.14	3.12 ± 0.15	2.66 ± 0.08	2.95 ± 0.15
ELDSKTRKILEILNECH [MED4]	3.21 ± 0.074	3.22 ± 0.06	3.27 ± 0.037	3.21 ± 0.043
PSTSITLAERQQLAYDL [RPN9]	2.91 ± 0.045	3.09 ± 0.06	2.8 ± 0.06	2.94 ± 0.033
PTPAASAPAPAAAAPAP [FAS2]	2.95 ± 0.1	3.05 ± 0.073	2.72 ± 0.074	3.1 ± 0.079
FHSEPDRDENWIHVSCL [LIN1]	3.16 ± 0.075	3.27 ± 0.054	3.07 ± 0.045	3.13 ± 0.039
ETRRKTTTVLKRYANHT [RET1]	2.14 ± 0.083	2.98 ± 0.084	3.09 ± 0.045	2.94 ± 0.05
RLAPLIKEENDMENMAD [ARP7]	3.75 ± 0.23	3.65 ± 0.15	2.88 ± 0.14	
EYNKPNSEKFVFLLTTR [ISW2]	3.09 ± 0.19	2.58 ± 0.099	1.59 ± 0.083	2.43 ± 0.12
LQDVIALSIADDASSAE [RPC53]	2.47 ± 0.11	1.57 ± 0.079	2.16 ± 0.17	2.81 ± 0.077
QIVPYIEKLTDGHLRAP [BRR2]	3.04 ± 0.052	3.1 ± 0.043	3.12 ± 0.037	3.15 ± 0.051
NGKLTSANERLFGNRPS [YML031W/NDC1]	2.72 ± 0.11	3.03 ± 0.076	2.69 ± 0.094	2.94 ± 0.066
EDVLVNQILMSVNFFVS [RPL1A]	1.91 ± 0.044	2.4 ± 0.045	2.08 ± 0.068	2.23 ± 0.035
VGFLVQLDLTGIFLHGK [PRP8]	2.17 ± 0.074	1.85 ± 0.05	2.33 ± 0.058	2.39 ± 0.067
GPAAAIEFEYDPWNKLK [RPB3]	3.04 ± 0.081	3.08 ± 0.078	3.05 ± 0.052	3.25 ± 0.065
FFNGKALNNAIPGGPKF [PRP8]	3.29 ± 0.13	3.02 ± 0.16	2.87 ± 0.17	2.94 ± 0.1
GELDVLQIESVTKETVH [PRP8]	2.54 ± 0.054	2.73 ± 0.066	2.55 ± 0.07	2.76 ± 0.064
LKYHDFLRKATAFNKTR [RPL16B]	2.98 ± 0.047	3.06 ± 0.054	2.77 ± 0.053	3.08 ± 0.036
AAGSYYVEAQHKLVFVV [RPL7A]	2.33 ± 0.072	2.74 ± 0.048	2.26 ± 0.069	2.4 ± 0.044
LNFKDDKKYKGLTTVWL [REC8]	2.71 ± 0.064	2.77 ± 0.14	2.64 ± 0.13	2.69 ± 0.066
NGRLNKCGVISPRFNVK [RPS22A]	2.58 ± 0.29	2.85 ± 0.23	2.88 ± 0.2	3.22 ± 0.11
ASLALAHVFVGTCNGDI [RPN1]	2.48 ± 0.059	2.61 ± 0.054	2.43 ± 0.077	2.58 ± 0.074
QQSNKLHCCIQLLMGDI [RPN3]	1.72 ± 0.045	1.99 ± 0.068	2 ± 0.064	1.84 ± 0.054
RNILHNTVPQVTNFNST [SRB5]	1.95 ± 0.056	2.87 ± 0.05	1.92 ± 0.052	2.44 ± 0.035

Sequence	protein stability index (doa10∆)	protein stability index (pdr5∆)	protein stability index (san1∆)	protein stability index (ubr1∆)
HVQFRLGNVDAFQLADG [PRP8]	3.28 ± 0.11	2.79 ± 0.084	2.47 ± 0.11	1.61 ± 0.046
VHLSNGYKMIPGAKPLQ [FAS1]	1.74 ± 0.072	2.02 ± 0.076	1.8 ± 0.088	1.81 ± 0.05
AQQDSTNVRLYSLLLAS [ECM29]	2.27 ± 0.068	2.04 ± 0.052	2.39 ± 0.047	2.43 ± 0.04
FSKGDADVLVDRVVSSD [SRP72]	3.28 ± 0.091	3.2 ± 0.098	3.02 ± 0.098	3.04 ± 0.081
DQGNGWLYVYETPNQDA [RPN6]	2.36 ± 0.061	2.01 ± 0.051	2.23 ± 0.067	2.38 ± 0.037
SHLYKARLDGHDFLFNT [RPN14]	3.37 ± 0.13	2.88 ± 0.076	3.13 ± 0.07	2.85 ± 0.047
MSSTTPKLESVKWQYDP [SNF12]	3.16 ± 0.065	3.25 ± 0.066	3.09 ± 0.048	3.39 ± 0.062
IFAGAFVFQTVFDTAIT [QCR9]	1.61 ± 0.048	1.35 ± 0.033	1.48 ± 0.076	1.67 ± 0.04
NSPTSFFDGSASSTPIP [YOR098C/NUP1]	3.19 ± 0.07	2.8 ± 0.049	2.94 ± 0.052	2.84 ± 0.046
NRRKQSFVLNKNTIDFE [RPN4]	2.86 ± 0.062	1.74 ± 0.045	2.1 ± 0.075	1.88 ± 0.044
SHLVVPYCPIASITGTG [YMR129W/POM152]	1.36 ± 0.065	1.37 ± 0.066	1.33 ± 0.1	1.36 ± 0.03
GAEVLIKGSKLSLGEAF [COR1]			2.32 ± 0.15	2.37 ± 0.1
GYLITPPKHTELLLTTL [SSN2]	1.85 ± 0.062	1.86 ± 0.052	1.54 ± 0.11	1.54 ± 0.031
ILSEILCQINKCSTRGL [YML103C/NUP188]	1.31 ± 0.088	1.55 ± 0.084	1.98 ± 0.097	2 ± 0.057
SAIDEEIEELIDSINGP [SMC3]	3.29 ± 0.14	3.24 ± 0.17	3.08 ± 0.17	2.42 ± 0.24
FPNIAIRPTELRLPFSA [PRP8]	2.11 ± 0.084	1.85 ± 0.086	1.93 ± 0.09	2.23 ± 0.076
NPFEDDMDGVDFNQAFE [BRN1]	3.31 ± 0.05	3.21 ± 0.064	3.39 ± 0.038	3.3 ± 0.049
KRAFENFKKFNERRKDL [SMC3]	3.45 ± 0.078	3.26 ± 0.068	3.51 ± 0.068	3.15 ± 0.075
VKKPTFTFGQSTSENKI [YOR098C/NUP1]	3.02 ± 0.21	2.87 ± 0.21	3.14 ± 0.2	3.45 ± 0.14
NQSFIQQKANLLSSSNF [COR1]	2.17 ± 0.067	1.91 ± 0.069	2.04 ± 0.083	1.76 ± 0.042
YIDEMYNHNDGGDGRDY [RRI1]	2.47 ± 0.1	3.26 ± 0.1	3.3 ± 0.21	2.75 ± 0.13
PEDLNSLYIYYLIKLLG [SIR2]	2.07 ± 0.053	2.15 ± 0.05	2.18 ± 0.064	1.95 ± 0.056
NDLQSETKTKKEKIKGL [SMC4]	3.32 ± 0.2	3.25 ± 0.25		3.5 ± 0.12
KEVSSFLMGIFNSVVNL [MTR3]	2.83 ± 0.057	2.91 ± 0.049	2.88 ± 0.056	3 ± 0.043
NSMDISMFSGLDSTGFD [MED2]	2.83 ± 0.059	3.06 ± 0.055	3.21 ± 0.041	2.83 ± 0.049
GCNNLIKNISNRVGLTL [ARP9]	3.28 ± 0.098	2.63 ± 0.066	3.33 ± 0.069	3.14 ± 0.057
